From US8465735B2, “Variant form of urate oxidase and use thereof” (Savient Pharmaceuticals, Inc., priority 2005, dated 2013)

Substrate: O=c1[nH]c(=O)c2[nH]c(=O)[nH]c2[nH]1
Experiment: purified protein, by the assay type
Conditions: other: sodium borate buffer, pH 9.2, 25.0 °C

B1: Pig uricase, native (Sigma) (Sus scrofa) (protein)
chain: MAHYRNDYKKNDEVEFVRTGYGKDMIKVLHIQRDGKYHSIKEVATSVQLTLSSKKDYLHGDNSDVIPTDTIKNTVNVLAKFKGIKSIETFAVTICEHFLSSFKHVIRAQVYVEEVPWKRFEKNGVKHVHAFIYTPTGTHFCEVEQIRNGPPVIHSGIKDLKVLKTTQSGFEGFIKDQFTTLPEVKDRCFATQVYCKWRYHQGRDVDFEATWDTVRSIVLQKFAGPYDKGEYSPSVQKTLYDIQVLTLGQVPEIEDMEISLPNIHYLNIDMSKMGLINKEEVLLPLDNPYGRITGTVKRKLTSRL
B1 gave a Km of 5.85 µM and a kcat of 15 s⁻¹.
